This is an account of results in paper PMC6491591.

Assay [1] has as its target endogenous Protein Kinase A catalytic subunit (PKA-Cα) of COS-1 cells. The experiment in a line: co-immunoprecipitation (IP: V5 antibody), western blot band intensity quantified with ImageJ. The conditions noted are these: COS-1 cells expressing GRTH-V5, parent: est. 1.1, read off a plot. A general note: Immunoblotting shows a protein as a band on a membrane.
The target is the same in assay [2]. The experiment in a line: co-immunoprecipitation (IP: PKA-Cα antibody), western blot band intensity quantified with ImageJ. The conditions noted are these: COS-1 cells expressing GRTH-V5, parent: est. 1.1, read off a plot.

Consider “Gonadotropin Regulated Testicular Helicase (GRTH/DDX25), wild type, V5-His tagged (from UniProt Q9UHL0) E165A”, for which the response (Arbitrary units) in assay [1] and in assay [2] was 0.88 each time.
Take “Gonadotropin Regulated Testicular Helicase (GRTH/DDX25), wild type, V5-His tagged (from UniProt Q9UHL0) E165A; K240A”: the figures for the response (Arbitrary units) in assay [1] and in assay [2] were 0.68 and 0.76, respectively.
On the same counts, the results for “Gonadotropin Regulated Testicular Helicase (GRTH/DDX25), wild type, V5-His tagged (from UniProt Q9UHL0) T239A” are 0.34 and 0.34.
